One assay deals with gD-HVEM interactions (Human herpesvirus 2, UniProt P03172, R52Q). To be noted: compared to wild-type gD immune serum; FIG. 34.
The subject of assay [1] is various anti-gD2 antibodies. Put plainly: Reactivity of gD variants with anti-gD2 antibodies (competitive ELISA). The assay is classed as binding, human. To be noted: for Reactivity with anti-gD2 antibody 1 / Reactivity with anti-gD2 antibody 5 / Reactivity with anti-gD2 antibody 13 / Reactivity with anti-gD2 antibody 72 / Reactivity with anti-gD2 antibody 75 / Reactivity with anti-gD2 antibody 78 / Reactivity with anti-gD2 antibody 82: immobilized gD variant. The text has this: Each anti-gD2 monoclonal antibody and each gD variant were expressed using an Expi293 expression system.

Another assay concerns the target T1, HVEM (Homo sapiens, UniProt Q92956).
T1 sequence (Q92956 39-202): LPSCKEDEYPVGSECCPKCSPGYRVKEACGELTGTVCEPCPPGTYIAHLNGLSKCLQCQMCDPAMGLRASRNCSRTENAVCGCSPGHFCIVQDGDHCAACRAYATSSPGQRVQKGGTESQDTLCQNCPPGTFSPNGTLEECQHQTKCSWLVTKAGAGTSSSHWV
Put plainly: Reactivity of HVEM with gD variants (competitive ELISA). The assay is classed as binding. The conditions noted are these: compared to the original gD1-315; FIG. 14. The procedure:
From the above discussion, it can be strongly inferred that each variant takes the structure in which FR1 is bound to the receptor binding region. The reactivity of HVEM with each variant was then measured by competitive ELISA.
HVEM can bind gD for the first time when FR1 binds to the receptor binding region and takes a characteristic hairpin structure. […] FR3-deficient gD1-275v5-55 promoted FR1 binding and further HVEM binding over other gD1-315-based variants in which FR3 was present.
(In general: ELISA stands for enzyme-linked immunosorbent assay.)

For another assay, the target named is gD1-315 (Human herpesvirus 2, UniProt P03172, R52Q). To be noted: compared to wild-type gD immune serum; FIG. 33. The procedure: IgG was purified from serum and analyzed by competitive methods using SPR (Biacore, Inc.) to make antibody amounts uniform.
gD1-315, sequence (P03172 26-340 R52Q): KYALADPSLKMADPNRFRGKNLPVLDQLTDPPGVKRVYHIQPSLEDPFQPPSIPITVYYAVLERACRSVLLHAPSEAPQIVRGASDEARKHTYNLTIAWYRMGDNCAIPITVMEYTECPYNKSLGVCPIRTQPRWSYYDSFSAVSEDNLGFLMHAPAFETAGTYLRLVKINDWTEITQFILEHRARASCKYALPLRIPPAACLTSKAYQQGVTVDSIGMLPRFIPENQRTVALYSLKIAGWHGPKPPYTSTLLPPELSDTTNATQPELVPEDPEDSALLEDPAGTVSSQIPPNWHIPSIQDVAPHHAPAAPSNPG
The anti-gD2 antibody competition test was performed using Biacore 3000 (GE Healthcare), where, in all experiments, HBS-EP buffer (GE Healthcare) was used, the temperature was set to 25° C., and the flow rate was set to 20 μL/min. CMS senor chip (GE Healthcare) was used as the sensor chip, and the experiment was performed based on the recommended protocol. gD1-315-His was immobilized at about 300 RU on the chip surface, and for chip regeneration, glycine-hydrochloride buffer of 0.1 M and pH 2.0 was used and the chip was washed twice at a flow rate of 30 μL/min for 30 seconds. Procedures for competition and calculation of the competition rate were as follows. 10 μg/mL of each anti-gD2 antibody or buffer was applied to the chip under a condition of binding for 1 minute and dissociation for 2.5 minutes. 20 μg/mL of each immune serum purified by IgG was then applied under a condition of binding for 1 minute and dissociation for 5 minutes. After buffer application, the RU detected when immune serum was applied was set to 100%, and the decrease in immune serum response by anti-gD2 antibody application was calculated as the competitive rate.

Another assay deals with HSV-2 MS strain. Nature of the assay: Mouse infection-prevention test of modified gD (genital herpes infection model). The assay is classed as in vivo, BALB/c mice. Also noted: key to Determination (vs gD1-315) / Determination# (vs gD1-315): ++: minimum effective dose based on the Significant difference test in three-fold common ratio relative to gD1-315(WT) of two or more doses stronger; +: those of one dose stronger; ±: those of an equivalent value. In outline: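 Female BALB/c mice immunized s.c. three times at 2-week intervals with gD antigen at 0.1–0.003 μg/mouse/time plus MPLA (10 μg) and CpG (1 μg), n=10. Depo-Provera 2 mg s.c. given, then 5×10^5 PFU HSV-2 MS intravaginally 2 weeks post-boost; survival over 21 days, Kaplan-Meier vs saline, scored relative to wild-type gD1-315.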

The test system of the next assay is splenocytes. Put plainly: Cellular immune (T cell immune)-inducing activity, IFN-γ production response of splenocytes. It counts as in vivo, BALB/c mice. To be noted: 3 μg/mouse; compared to the wild-type gD immune group; FIG. 25. The procedure:
Furthermore, for cellular immune (T cell immune) inducing activity, the IFN-γ production response activity (recall activity) of splenocytes (a pool sample of four cases) prepared from mice immunized with gD1-315v3-55 as an example of a modified gD antigen and wild-type gD (gD1-315) (3 μg/mouse of the administration group) was compared and analyzed. Specifically, 5 weeks old BALB/c mice were immunized with 3 μg of antigen subcutaneously in back at 2-week intervals for a total of 3 times, and splenocytes were collected 2 weeks after the final immunization. Anti-IFN-γ was immobilized in a 96-well plate with a PVDF membrane on the bottom surface and cells were seeded at 1×10^6 cells/100 μL/well. Immune antigens were added as stimulants at 10 mM and the cells were cultured at 37° C. and 5% CO2 for 20 hours. The supernatant was removed and the anti-mouse IFNγ-HRP antibody was reacted, then HRP was stained with AEC reagents to count IFNγ-producing cell numbers with an Image Analyzer (CTL).

[2] abbreviates: Experiment 1, 0.003 μg/head/time.
The mark [3] stands for this setting: Experiment 1, 0.01 μg/head/time.
Where [4] appears, read: Experiment 1, 0.03 μg/head/time.
Setting [5] is: Experiment 2, 0.003 μg/head/time.
The mark [6] stands for this setting: Experiment 2, 0.01 μg/head/time.
The mark [7] stands for this setting: Experiment 2, 0.03 μg/head/time.

Where a chain is given by its changes, count along the chain named.

gD-HVEM interactions, sequence (P03172 26-330 R52Q): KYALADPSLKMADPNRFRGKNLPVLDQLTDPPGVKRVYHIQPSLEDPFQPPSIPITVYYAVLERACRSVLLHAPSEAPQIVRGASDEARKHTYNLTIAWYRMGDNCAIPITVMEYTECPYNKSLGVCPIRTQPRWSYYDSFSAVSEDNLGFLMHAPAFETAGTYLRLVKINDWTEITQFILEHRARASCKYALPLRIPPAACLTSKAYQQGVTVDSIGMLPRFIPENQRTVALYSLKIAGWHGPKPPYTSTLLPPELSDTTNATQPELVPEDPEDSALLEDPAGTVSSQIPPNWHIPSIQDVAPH
Description for gD-HVEM interactions: Inhibition of gD-HVEM interactions by modified gD immune serum was also analyzed. Specifically, 100 μL of gD1-305-cys-strep dimer adjusted to a concentration of 5 μg/mL with phosphate buffered saline was immobilized in a 96-well microtiter plate at 4° C. overnight. Subsequently, blocking and washing were performed as in the competitive ELISA method described above, 100 μL of IgG purified from each immune serum was added at any concentration and reacted at room temperature for one hour. Subsequently, 1 μg/mL of HVEM (Recombinant Human HVEM/TNFRSF14 Fc Chimera Protein, R&D SYSTEMS, Inc.) was diluted at any dilution fold with 1% BSA PBS, each added at 100 μL and reacted at room temperature for an additional hour. Each well was washed again with PBS-T, then, HRP-labeled antibody (anti-hFc/HRP/1% BSA PBS) was reacted. Each well was washed with PBS-T, then colored, and after the reaction was stopped with 1N sulfuric acid, absorbance of 450 nm/650 nm was measured.

B1: gD1-315v5-55: gD1-315 with glycochains at SC-A, SC-F, linked to T cell epitope peptide DP5 (protein)
chain: KYALADPSLKMADPNRFRGKNLPVLDQLTDPPGVKRVYHIQPSLEDPFQNASIPITVYYAVLERACRSVLLHAPSEAPQIVRGASDEARKHTYNLTIAWYRMGDNCAIPITVMEYTECPYNKSLGVCPIRTQPRWSYYDSFSAVSEDNLGFLMHAPAFETAGTYLRLVKINDWTEITQFILEHRANASCKYALPLRIPPAACLTSKAYQQGVTVDSIGMLPRFIPENQRTVALYSLKIAGWHGPKPPYTSTLLPPELSDTTNATQPELVPEDPEDSALLEDPAGTVSSQIPPNWHIPSIQDVAPHHAPAAPSNPGGPGPGIAFWVRRRAQMAPKPLRIAFWVRRRAQMAPKPLRHHHHHH
modifications: left off: small tags and cut ends
Regarding B1, the “Inhibition of gD-HVEM interaction by immune serum IgG” value with gD-HVEM interactions is reported as “strong inhibitory effects”. Moreover, in assay [1] (FIG. 13), the “Relative reactivity with antibody No. 82 (gD1-315 wild-type set to 1)” value is “approximately 12 fold”. Further, in assay [1], the “Reactivity with anti-gD2 antibody 1” value was “+ ((+): 70% or more)”, the “Reactivity with anti-gD2 antibody 5” value was “− ((−): less than 30%)”, the “Reactivity with anti-gD2 antibody 13” value was “+ ((+): 70% or more)” and the “Reactivity with anti-gD2 antibody 72” value is “− ((−): less than 30%)”. Moreover, in assay [1], the “Reactivity with anti-gD2 antibody 75” value is reported as “− ((−): less than 30%)”, the “Reactivity with anti-gD2 antibody 78” value was “− ((−): less than 30%)” and the “Reactivity with anti-gD2 antibody 82” value is “+ ((+): 70% or more)”. Besides, the “Reactivity with HVEM” value in the assay with HVEM was “highest reactivity”. Further, in the assay with gD1-315, the “Percentage of antibodies in immune serum competing with antibody No. 1” value is recorded as “little change”, the “Percentage of antibodies in immune serum competing with antibody No. 72” value is “tend to decrease” and the “Percentage of antibodies in immune serum competing with antibody No. 82” value is recorded as “increased percentage”.

B2: gD1-315v3-55: gD1-315 with glycochain at SC-F, linked to two DP5 T cell epitope peptides (protein)
chain: B1 chain with N186R
modifications: left off: small tags and cut ends
Turning to B2, in the assay with HSV-2 MS strain (setting [2]), the “Mean survival time” value is more than 16 days and the “Significant difference test (vs saline)” value is on record as “*** (*** p < 0.001)”. Besides, in the assay with HSV-2 MS strain (setting [3]), the “Mean survival time” value is recorded as 15 days and the “Significant difference test (vs saline)” value is recorded as “*** (*** p < 0.001)”. Also, in the assay with HSV-2 MS strain (setting [4]), the “Mean survival time” value is given as more than 21 days and the “Significant difference test (vs saline)” value is reported as “*** (*** p < 0.001)”. Also, in the assay on HSV-2 MS strain (Experiment 1, 0.1 μg/head/time), the “Mean survival time” value is more than 21 days and the “Significant difference test (vs saline)” value is reported as “*** (*** p < 0.001)”. In addition, the “Determination (vs gD1-315)” value in the assay on HSV-2 MS strain (Experiment 1, minimum effective dose relative to gD1-315(WT)) is “++”. Further, in the assay with HSV-2 MS strain (setting [5]), the “Mean survival time” value was determined as 7 days and the “Significant difference test (vs saline)” value was “N.S”. In the assay on HSV-2 MS strain (setting [6]), the “Mean survival time” value is recorded as more than 16 days and the “Significant difference test (vs saline)” value is “N.S”. Moreover, in the assay on HSV-2 MS strain (setting [7]), the “Mean survival time” value is more than 22 days and the “Significant difference test (vs saline)” value is given as “*** (*** p < 0.001)”. In the assay with HSV-2 MS strain (Experiment 2, 0.1 μg/head/time), the “Mean survival time” value is more than 22 days and the “Significant difference test (vs saline)” value is “*** (*** p < 0.001)”. Besides, the “Determination# (vs gD1-315)” value with HSV-2 MS strain (Experiment 2, minimum effective dose relative to gD1-315(WT)) was “+”. For the same molecule, in assay [1], the “Reactivity with anti-gD2 antibody 1” value was “+ ((+): 70% or more)”, the “Reactivity with anti-gD2 antibody 5” value is “− ((−): less than 30%)”, the “Reactivity with anti-gD2 antibody 13” value is “+ ((+): 70% or more)” and the “Reactivity with anti-gD2 antibody 72” value was “− ((−): less than 30%)”. In addition, in assay [1], the “Reactivity with anti-gD2 antibody 75” value was “− ((−): less than 30%)”, the “Reactivity with anti-gD2 antibody 78” value is listed as “− ((−): less than 30%)” and the “Reactivity with anti-gD2 antibody 82” value is listed as “+ ((+): 70% or more)”. Further, in the assay with gD1-315, the “Percentage of antibodies in immune serum competing with antibody No. 1” value is “little change”, the “Percentage of antibodies in immune serum competing with antibody No. 72” value is “tend to decrease” and the “Percentage of antibodies in immune serum competing with antibody No. 82” value is “increased percentage”. For the same molecule, the “IFN-γ production response activity (recall activity) of splenocytes” value in the assay on splenocytes is “higher response activity”.
